Laboratory results taken from patent US20190127480A1 (Regeneron, published 2019).

B1: H1H5778P (antibody, human IgG1, V domains shown)
VH: EVQLVESGGGLVQPGRSLRLSCVASGFTFADFTMHWVRQAPGKGLEWVSGISWNSNSIDYADSVKGRFTISRDNAKKSLFLQMSSLRAEDTALYYCVKDRSGYSRFYYGMDVWGQGTTVTVSS
VL: EIVMTQSPATLSVSPGERAILSCRASQNINSNLAWYQQKPGQAPRLLIYGASTRATGVPARFSGSGSGTEFTLTIRSLQSEDFAVYYCQQYYNWPITFGHGTRLEIK
notes: H1H: human IgG1 Fc
B2: H1H5772S (antibody, human IgG1, V domains shown)
VH: QVQLVESGGGLVQPGRSLRLSCAASGFSFDDYAMHWVRQAPGQGLEWVSGISWNGGSRDYADSVKGRFTISRDNARNSLFLQMNSLFTEDTALYYCAKDKSGYGSYFYGMDVWGQGTTVTVSS
VL: EIVLTQSPGILSLSPGDRATLSCRASQSIRNIYLAWYQQKPGQAPRLLIHGASTRATGIPDRFSGSGSGTDFTLTISRLEPEDFAVYYCQQRVSSPYTFGQGTKLEIK
notes: H1H: human IgG1 Fc; also called H1H5772P
B3: H1H5781P (antibody, human IgG1, V domains shown)
VH: EVQLVESGGGLVQPGRSLRLSCAASGFTFDDFTMHWVRQAPGKGLEWVSDISWNSGSIDYADSVKGRFTISRDNARNSLFLQMSSLRTEDTASYYCIKDKSGYGSYNYGLDVWGQGTTVTVSS
VL: EIVLTQSPGTLSLSPGDRATLSCRASQSVSSIYLAWYQQKPGQAPRLLIHGASTRATGIPDRFSGSGSGTDFTLTISRLEPEDFALYYCHQRVSSPYTFGQGTKLEIK
notes: H1H: human IgG1 Fc
B4: H1H5780P (antibody, human IgG1, V domains shown)
VH: EVQLVESGGGLVQPGRSLRLSCAASGFTFDDYAMHWVRQAPGKGLEWVSGISWNGGSKDYADSVKGRFTISRDNTRNSLSLQMNSLRIEDTALYYCAKDKSGYGSFYYGLDVWGQGTTVTVSS
VL: EIVLTQSPGTLSLSPGDRATLSCRASQSIRSIYLAWYQQKPGQAPRLLIHGASTRATGIPDRFSGSGSGTDFTLTISRLEPEDFAVYYCQQRVSSPYTFGQGTKLEIK
notes: H1H: human IgG1 Fc
B5: H1H5764P (antibody, human IgG1, V domains shown)
VH: QVQLVESGGGVVQPGRSLRLSCAASGFTFRSFGMHWVRQAPGKGLEWVAVISYDGNYKYYADSVKGRFTISRDNSKNTLYLQMNSLRAEDTAVHYCAKGAMVRGVPYNFYYGMDVWGQGTTVTVSS
VL: DIQMTQSPSSLSASVGDRVTITCRASQVIRNDLGWYQQKPGKAPKRLIYAASSLQSGIPSRFSGSGSGTEFTLTISSLQPEDFATYYCLQHNSYPYTFGQGTKLEIK
notes: H1H: human IgG1 Fc
B6: H1H5788P (antibody, V domains shown)
VH: EVQLVESGGGLVQPGRSLRLSCAASGFTFDDYTMHWVRQAPGKGLEWVSGISWNSGSIGYADSVKGRFTISRDNAKNSLYLQMNSLRAEDTALFYCAKDQSGYGHYYYGMDVWGQGTTVTVSS
VL: EIVMTQSPATLSVSPGERATLSCRASQSVSSNLAWYQQKPGQAPRLLIYGASTRATDIPARFSGSGSGTEFTLTISSLQSEDFAVYHCQQYNNWPLTFGGGTKVEIK
notes: H1H: human IgG1 Fc

How the values were obtained:
[1] = target: cynomolgus monkey CD3 expressed on monkey T-cells (PBMCs) (cynomolgus monkey, UniProt Q95LI5 22-198; Q95LI8 22-171); experiment: cell-based or functional assay
Sequence of cynomolgus monkey CD3 expressed on monkey T-cells (PBMCs) (Q95LI5 22-198, chain 1 of 2): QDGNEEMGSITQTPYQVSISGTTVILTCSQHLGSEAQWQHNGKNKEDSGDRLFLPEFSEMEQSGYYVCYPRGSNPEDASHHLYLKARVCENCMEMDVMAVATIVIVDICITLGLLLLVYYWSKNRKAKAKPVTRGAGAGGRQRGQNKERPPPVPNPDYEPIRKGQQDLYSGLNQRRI
Sequence of cynomolgus monkey CD3 expressed on monkey T-cells (PBMCs) (Q95LI8 22-171, chain 2 of 2): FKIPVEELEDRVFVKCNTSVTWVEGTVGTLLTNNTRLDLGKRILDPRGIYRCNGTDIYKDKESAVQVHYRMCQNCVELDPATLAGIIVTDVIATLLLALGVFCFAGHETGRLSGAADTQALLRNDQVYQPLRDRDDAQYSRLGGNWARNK

[2] = target: T1, human CD3 expressed on cells (Jurkat cells; human T-cells of PBMC) (human, UniProt P09693 23-182; P20963 22-164); experiment: cell-based or functional assay
T1 sequence (chain, as listed by the source, chain 1 of 4): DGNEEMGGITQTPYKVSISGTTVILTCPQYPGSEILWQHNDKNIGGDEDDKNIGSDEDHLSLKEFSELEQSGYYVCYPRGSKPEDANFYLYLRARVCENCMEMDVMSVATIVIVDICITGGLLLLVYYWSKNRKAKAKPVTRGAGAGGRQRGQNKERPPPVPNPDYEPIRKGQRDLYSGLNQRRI
T1 sequence (chain, as listed by the source, chain 2 of 4): as the sequence (Q95LI8 22-171, chain 2 of 2) above, with V5I, K15N, V20I, T32S, N33D, N34I, A64T, N74S, L83V, R141H counted along it
T1 sequence (P09693 23-182, chain 3 of 4): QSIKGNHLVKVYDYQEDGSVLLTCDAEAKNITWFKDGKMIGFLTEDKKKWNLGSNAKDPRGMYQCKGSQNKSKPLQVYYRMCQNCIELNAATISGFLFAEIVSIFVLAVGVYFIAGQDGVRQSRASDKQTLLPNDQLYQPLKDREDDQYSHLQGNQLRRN
T1 sequence (P20963 22-164, chain 4 of 4): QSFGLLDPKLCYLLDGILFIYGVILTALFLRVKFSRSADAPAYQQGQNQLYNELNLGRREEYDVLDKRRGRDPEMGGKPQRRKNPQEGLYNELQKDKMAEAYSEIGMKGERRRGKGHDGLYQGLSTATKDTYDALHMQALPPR

[3] = target: T1, human CD3 expressed on cells (Jurkat …); experiment: FACS titration on Jurkat cells (CD3+ human T-cell line)
Description: FACS data was acquired using the following protocol: Cells at 2×10⁵ per well were incubated with serially diluted antibodies for 30 min on ice. Post incubation, cells were washed and secondary antibody was added and incubated for an additional 30 minutes. After incubation, cells were washed, re-suspended in cold PBS containing 1% BSA and analyzed by flow cytometry with viable Jurkat cells gated by side and forward scatters. The EC₅₀s for cell binding titration were determined using Prism software with values calculated using a 4-parameter non-linear regression analysis.

[4] = target: T1, human CD3 expressed on cells (Jurkat …); experiment: cell-based or functional assay; remark: listed apart in the source

Row | Binder | EC50 [M] mfPBMC Proliferation [1] | U937 Cytotoxicity Human T-cells [2] | EC50 [3] | EC50 [M] hPBMC Proliferation [4]
1 | B1 | 5.93e-13 M | 0.341 pM | 685 pM | 5.04e-12 M
2 | B2 | 1.47e-12 M | 0.689 pM | 664 pM | 4.42e-12 M
3 | B3 | 7.92e-13 M | 1.83 pM | 1230 pM | 6.08e-12 M
4 | B4 | 3.13e-13 M | 4.03 pM | 762 pM | 3.44e-12 M
5 | B5 | 4.06e-10 M |  | 880 pM | 3.27e-13 M
6 | B6 | 2.01e-12 M | 15.4 pM | 3530 pM | 4.62e-12 M
